Results as given in patent EP1942187B1.
Values belong to the substance of their own block, whether it stands above or below them.

Assays:
Test in all cases: cell-based or functional assay
human zcytor19 (human) = molecular target: human zcytor19 (human)
[1] = molecular target: zcytoR19 and IL10Rb (CRF2-4) coexpressed on BHK cells (human)
IL10Rb (CRF2-4) (human) = IL10Rb (CRF2-4) (human) (UniProt Q08334)
IL10Rb (CRF2-4) (human), sequence (Q08334 20-325 limits assumed, form in doubt): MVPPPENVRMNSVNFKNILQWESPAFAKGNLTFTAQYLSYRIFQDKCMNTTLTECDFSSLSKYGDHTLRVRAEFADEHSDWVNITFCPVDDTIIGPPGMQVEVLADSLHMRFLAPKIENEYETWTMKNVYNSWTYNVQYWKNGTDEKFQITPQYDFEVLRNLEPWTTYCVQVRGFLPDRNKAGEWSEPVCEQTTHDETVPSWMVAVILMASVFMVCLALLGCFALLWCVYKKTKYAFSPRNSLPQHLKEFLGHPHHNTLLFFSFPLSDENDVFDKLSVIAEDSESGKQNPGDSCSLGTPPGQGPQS

ISRE-luciferase fold induction; 293 cells transfected with ISRE-Luc./Zcytor19; HuIL 10 100ng/ml (fold induction) (human zcytor19 (human)): 0.5
Substance: huIL10 (from UniProt P22301 19-178) (ligand)

ISRE-luciferase fold induction; 293 cells transfected with ISRE-Luc./Zcytor19; Zcyto10 125ng/ml (fold induction) (human zcytor19 (human)): 1
Substance: zcyto10 (from UniProt Q9NYY1 25-176) (ligand)

ISRE-luciferase fold induction; BHK cells transfected with zcytoR19 and IL10Rb (CRF2-4); zcyto20 0.001 ng/ml (fold induction) [1]: 1.5
ISRE-luciferase fold induction; BHK cells transfected with zcytoR19 and IL10Rb (CRF2-4); zcyto20 0.01 ng/ml (fold induction) [1]: 1.6
ISRE-luciferase fold induction; BHK cells transfected with zcytoR19 and IL10Rb (CRF2-4); zcyto20 0.1 ng/ml (fold induction) [1]: 2.1
ISRE-luciferase fold induction; BHK cells transfected with zcytoR19 and IL10Rb (CRF2-4); zcyto20 1 ng/ml (fold induction) [1]: 2.5
ISRE-luciferase fold induction; BHK cells transfected with zcytoR19 and IL10Rb (CRF2-4); zcyto20 10 ng/ml (fold induction) [1]: 2.4
ISRE-luciferase fold induction; BHK cells transfected with zcytoR19 and IL10Rb (CRF2-4); zcyto20 100 ng/ml (fold induction) [1]: 2.6
ISRE-luciferase fold induction; BHK cells transfected with zcytoR19 and IL10Rb (CRF2-4); zcyto20 1000 ng/ml (fold induction) [1]: 2.1
ISRE-luciferase fold induction; wild-type 293 cells; Zcyto20 0.01 ng/ml; + IL10Rb neutralizing antibody (8 ug/ml) (fold induction) (IL10Rb (CRF2-4) (human)): 0.8
ISRE-luciferase fold induction; wild-type 293 cells; Zcyto20 0.01 ng/ml; no antibody (fold induction) (IL10Rb (CRF2-4) (human)): 1
ISRE-luciferase fold induction; wild-type 293 cells; Zcyto20 0.1 ng/ml; + IL10Rb neutralizing antibody (8 ug/ml) (fold induction) (IL10Rb (CRF2-4) (human)): 1
ISRE-luciferase fold induction; wild-type 293 cells; Zcyto20 0.1 ng/ml; no antibody (fold induction) (IL10Rb (CRF2-4) (human)): 1
ISRE-luciferase fold induction; wild-type 293 cells; Zcyto20 1 ng/ml; + IL10Rb neutralizing antibody (8 ug/ml) (fold induction) (IL10Rb (CRF2-4) (human)): 0.9
ISRE-luciferase fold induction; wild-type 293 cells; Zcyto20 1 ng/ml; no antibody (fold induction) (IL10Rb (CRF2-4) (human)): 1
ISRE-luciferase fold induction; wild-type 293 cells; Zcyto20 10 ng/ml; + IL10Rb neutralizing antibody (8 ug/ml) (fold induction) (IL10Rb (CRF2-4) (human)): 0.9
ISRE-luciferase fold induction; wild-type 293 cells; Zcyto20 10 ng/ml; no antibody (fold induction) (IL10Rb (CRF2-4) (human)): 4
ISRE-luciferase fold induction; wild-type 293 cells; Zcyto20 100 ng/ml; + IL10Rb neutralizing antibody (8 ug/ml) (fold induction) (IL10Rb (CRF2-4) (human)): 0.8
ISRE-luciferase fold induction; wild-type 293 cells; Zcyto20 100 ng/ml; no antibody (fold induction) (IL10Rb (CRF2-4) (human)): 8.4
ISRE-luciferase fold induction; zcytoR19-overexpressing 293 cells; Zcyto20 0.01 ng/ml; + IL10Rb neutralizing antibody (8 ug/ml) (fold induction) (IL10Rb (CRF2-4) (human)): 1.2
ISRE-luciferase fold induction; zcytoR19-overexpressing 293 cells; Zcyto20 0.01 ng/ml; no antibody (fold induction) (IL10Rb (CRF2-4) (human)): 1.1
ISRE-luciferase fold induction; zcytoR19-overexpressing 293 cells; Zcyto20 0.1 ng/ml; + IL10Rb neutralizing antibody (8 ug/ml) (fold induction) (IL10Rb (CRF2-4) (human)): 1.1
ISRE-luciferase fold induction; zcytoR19-overexpressing 293 cells; Zcyto20 0.1 ng/ml; no antibody (fold induction) (IL10Rb (CRF2-4) (human)): 6
ISRE-luciferase fold induction; zcytoR19-overexpressing 293 cells; Zcyto20 1 ng/ml; + IL10Rb neutralizing antibody (8 ug/ml) (fold induction) (IL10Rb (CRF2-4) (human)): 1.3
ISRE-luciferase fold induction; zcytoR19-overexpressing 293 cells; Zcyto20 1 ng/ml; no antibody (fold induction) (IL10Rb (CRF2-4) (human)): 68
ISRE-luciferase fold induction; zcytoR19-overexpressing 293 cells; Zcyto20 10 ng/ml; + IL10Rb neutralizing antibody (8 ug/ml) (fold induction) (IL10Rb (CRF2-4) (human)): 23
ISRE-luciferase fold induction; zcytoR19-overexpressing 293 cells; Zcyto20 10 ng/ml; no antibody (fold induction) (IL10Rb (CRF2-4) (human)): 97
ISRE-luciferase fold induction; zcytoR19-overexpressing 293 cells; Zcyto20 100 ng/ml; + IL10Rb neutralizing antibody (8 ug/ml) (fold induction) (IL10Rb (CRF2-4) (human)): 60
ISRE-luciferase fold induction; zcytoR19-overexpressing 293 cells; Zcyto20 100 ng/ml; no antibody (fold induction) (IL10Rb (CRF2-4) (human)): 91
ISRE-luciferase fold induction; 293 cells transfected with ISRE-Luc./Zcytor19; Zcyto20 125ng/ml (fold induction) (human zcytor19 (human)): 125
ISRE-luciferase fold induction; BHK cells transfected with zcytoR19 alone; zcyto20 0.001 ng/ml (fold induction) (human zcytor19 (human)): 1.4
ISRE-luciferase fold induction; BHK cells transfected with zcytoR19 alone; zcyto20 0.01 ng/ml (fold induction) (human zcytor19 (human)): 1.2
ISRE-luciferase fold induction; BHK cells transfected with zcytoR19 alone; zcyto20 0.1 ng/ml (fold induction) (human zcytor19 (human)): 1.25
ISRE-luciferase fold induction; BHK cells transfected with zcytoR19 alone; zcyto20 1 ng/ml (fold induction) (human zcytor19 (human)): 1.3
ISRE-luciferase fold induction; BHK cells transfected with zcytoR19 alone; zcyto20 10 ng/ml (fold induction) (human zcytor19 (human)): 2.1
ISRE-luciferase fold induction; BHK cells transfected with zcytoR19 alone; zcyto20 100 ng/ml (fold induction) (human zcytor19 (human)): 2.2
ISRE-luciferase fold induction; BHK cells transfected with zcytoR19 alone; zcyto20 1000 ng/ml (fold induction) (human zcytor19 (human)): 2.25
Substance: zcyto20 (ligand)
